Measured values published in PMC7174510.

B1: Tiam1 C1199 (aa 391-1590) (domain or fragment)
chain: LEMSTTNSESLEEAGSAHSDEQSSGTLSSPGQSDILLTAAQGTVRKAGALAVKNFLVHKKNKKVESATRRKWKHYWVSLKGCTLFFYETDGRSGIDHNSVPKHAVWVENSIVQAVPEHPKKDFVFCLSNSLGDAFLFQTTSQTELENWITAIHSACAAAVARHHHKEDTLRLLKSEIKKLEQKIDMDEKMKKMGEMQLSSVTDSKKKKTILDQIFVWEQNLEQFQMDLFRFRCYLASLQGGELPNPKRLLAFASRPTKVAMGRLGIFSVSSFHALVAARTGEIGVRRRTQAMSRSASKRRSRFSSLWGLDTTSKKKQGRPTINQVFGEGTDAVKRSLEGIFDDTVPDGKREKEVVLPSVHQHNPDCDIWVHEYFTPSWFCLPNNQPALTVVRPGDTARDTLELICKTHQLDHSAHYLRLKFLMENRVQFYIPQPEEDIYELLYKEIEICPKVTQNIHIEKSDAAADNYGFLLSSVDEDGIRRLYVNSVKETGLASKKGLKAGDEILEINNRAAGTLNSSMLKDFLSQPSLGLLVRTYPEPEGGVELLENPPHRVDGPVDLGESPLAFLTSNPGHSLSSEQGSSAETAPEEGEGPDLESSDETDHSSKSTEQVAAFCRSLHEMSPSDSSPSPQDATSPQLATTRQLSDADKLRKVICELLETERTYVKDLNCLMERYLKPLQKETFLTQDELDVLFGNLTEMVEFQVEFLKTLEDGVRLVPDLEKLEKVDQFKKVLFSLGGSFLYYADRFKLYSAFCASHTKVPKVLVKAKTDTAFKAFLDAQNPRQQHSSTLESYLIKPIQRVLKYPLLLRELFALTDAESEEHYHLDVAIKTMNKVASHINEMQKIHEEFGAVFDQLIAEQTGEKKEVADLSMGDLLLHTSVIWLNPPASLGKWKKEPELAAFVFKTAVVLVYKDGSKQKKKLVGSHRLSIYEEWDPFRFRHMIPTEALQVRALPSADAEANAVCEIVHVKSESEGRPERVFHLCCSSPESRKDFLKSVHSILRDKHRRQLLKTESLPSAQQYVPFGGKRLCALKGARPAMSRAVSAPSKSLGRRRRRLARNRFTIDSDAISASSPEKEPQQPAGGGDTDRWVEEQFDLAQYEEQDDIKETDILSDDDEFCESLKGASVDRDLQEQLQAASISQRARGRRTLDSHASRMTQLKKQAALSGINGGLESASEEVIWVRREDFAPSRKLNTE
B2: oncogenic Dbl (domain or fragment)
chain: HVLNELIQTERVYVRELYTVLLGYRAEMDNPEMFDLMPPLLRNKKDILFGNMAEIYEFHNDIFLSSLENCAHAPERVGPCFLERKDDFQMYAKYCQNKPRSETIWRKYSECAFFQECQRKLKHRLRLDSYLLKPVQRITKYQLLLKELLKYSKDCEGSALLKKALDAMLDLLKSVNDSMHQIAINGYIGNLNELGKMIMQGGFSVWIGHKKGATKMKDLARFKPMQRHLFLYEKAIVFCKRRVESGEGSDRYPSYSFKHCWKMDEVGITEYVKGDNRKFEIWYGEKEEVYIVQASNVDVKMTWLKEIRNILLKQQELLTVKKRKQQDQLTERDKFQISLQQNDEKQQGAFISTEETELEHTSTVVEVCEAIASVQAEANTVWTEASQSAEISEEPAEWSSNYFYPTYDENEEENRPLMRPVSEMALLY

Molecular target: Rac1 (African green monkey (endogenous in COS-1))

Row | Binder | percent inhibition by 1A-116 (50 uM, 24 h) of the SRE-luciferase activity elicited by the activated GEF in COS-1 cells [%]
1 | B1 | 75
2 | B2 | 60
